Test results: patent US20240279845A1, “METHOD FOR PREPARING A LIBRARY OF PEPTIDES OR A PEPTIDE” (ECOLE POLYTECHNIQUE FEDERALE DE LAUSANNE (EPFL), priority 2021, published 2024)

What was measured:
[1] = tested on: Cc1cc(=O)oc2cc(NC(=O)[C@H](CCCNC(=N)N)NC(=O)[C@@H]3CCCN3C(=O)[C@@H](NC(=O)OC(C)(C)C)C(C)C)ccc12; assay: Substrate KM for protease screen, KLK5; format: biochemical; details: other: KLK5
Method: (§1) Crude macrocyclic libraries (4 mM DMSO stocks in 384-well LDV plates were transferred into 1536-well microtiter OptiPlates via ADE. Applied buffered solutions were prepared by filtration through PTFE syringe filters (0.22 μm) and assays were initiated by addition of protease (4.41 μl/well) in appropriate buffer (see list below) supplemented with bovine serum albumin (BSA; 0.1% w/v) and dispensed using a CERTUS automated liquid handler. Plates were incubated for 10 min at ambient temperature before fluorogenic substrate in appropriate buffer (4.5 μl) was added using a CERTUS automated liquid handler. Plates were centrifugated (800 g, 2 min) and fluorescence intensity was measured using a PHERAstar plate reader (excitation 384 nm, emission 440 nm) in time increments of 150 s over 15 min. Slopes of fluorescence increase (m) were calculated with Microsoft Excel (vers. 16.56). Negative controls were prepared without macrocycle. An average of 12 negative controls was used to calculate residual activities using Equation I below: […]
(§2) where [S]0 is the initial substrate concentration and KM is the Michaelis-Menten constant^12 for the enzyme and substrate.

[2] = tested on: Cc1cc(=O)oc2cc(NC(=O)[C@H](CCCNC(=N)N)NC(=O)[C@H](Cc3ccccc3)NC(=O)OCc3ccccc3)ccc12; assay: Substrate KM for protease screen, PKal; format: biochemical; details: other: PKal
Method: as §1, §2

Sequence of PKal (Homo sapiens) (chain, as listed by the source): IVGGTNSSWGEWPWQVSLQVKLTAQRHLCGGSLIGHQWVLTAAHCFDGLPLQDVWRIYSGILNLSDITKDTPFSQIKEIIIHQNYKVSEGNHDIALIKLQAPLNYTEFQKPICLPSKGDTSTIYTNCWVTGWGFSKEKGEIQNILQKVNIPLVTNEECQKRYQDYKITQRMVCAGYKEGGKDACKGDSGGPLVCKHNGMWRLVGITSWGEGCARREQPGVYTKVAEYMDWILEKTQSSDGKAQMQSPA

Substance | Km [1] | Km [2]
KLK5 (Homo sapiens) | 200 ± 10 µM | 
PKal (Homo sapiens) |  | 120 ± 28 µM
